# B1: BMP receptor type 1B (receptor, UniProt O00238 14-126, looked up)
# chain: KKEDGESTAPTPRPKVLRCKCHHHCPEDSVNNICSTDGYCFTMIEEDDSGLPVVTSGCLGLEGSDFQCRDTPIPHQRRSIECCTERNECNKDLHPTLPPLKNRDFVDGPIHHR
# notes: BMP receptor type 1B (BMPR1B); No catalogue number is printed; also called BMPR1B; source: bought: Thermo Fisher Scientific Co
# B2: Chinese hamster ovary cell-derived recombinant human bone morphogenetic protein-2 (ligand, UniProt P12643 283-396, looked up)
# chain: QAKHKQRKRLKSSCKRHPLYVDFSDVGWNDWIVAPPGYHAFYCHGECPFPLADHLNSTNHAIVQTLVNSVNSKIPKACCVPTELSAISMLYLDENEKVVLKNYQDMVVEGCGCR
# modifications: N-glycan (position not given)
# notes: Bone morphogenetic protein 2 (BMP-2), human, CHO cell-derived, glycosylated; also called C-rhBMP-2; CHO cell-derived rhBMP-2; source: CHO cell-derived; bought: National Institute for Biological Standards and Control
# B3: Escherichia coli-derived recombinant human bone morphogenetic protein-2 (ligand, UniProt P12643 283-396, looked up)
# chain: B2 chain
# notes: Bone morphogenetic protein 2 (BMP-2), human; no glycans; Not glycosylated (made in E. coli); an added N-terminal methionine is not spoken of; also called E-rhBMP-2; E. coli-derived rhBMP-2; source: E. coli-derived; provided by Daewoong Pharmaceutical Co., Ltd
# Tests used:
# Experiment in all cases: SPR; Biacore T200; rhBMP-2 (ligand) immobilised by EDC/NHS coupling, target level 500 RU, in 10 mM sodium acetate pH 6.0; receptors as analytes, 10-2000 nM, 30 µL/min, 120 s association and 120 s dissociation; 1:1 binding model
# Settings in all cases: both partners purified
# [1] = biological target: B3
# [2] = biological target: B2
# BMP receptor type 2 = biological target: T1, BMP receptor type 2 (UniProt Q13873 27-150)
# T1 construct: BMP receptor type 2 (BMPR2); No catalogue number is printed; also called BMPR2; source: bought: Thermo Fisher Scientific Co
# T1 sequence (looked up): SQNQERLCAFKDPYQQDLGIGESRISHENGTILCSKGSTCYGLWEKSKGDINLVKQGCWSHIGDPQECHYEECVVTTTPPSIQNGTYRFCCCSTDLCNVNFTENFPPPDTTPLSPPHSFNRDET
Kd [1],kon [1],Kd [2],kon [2],Kd (BMP receptor type 2),Binder
194 nM,1960 M⁻¹ s⁻¹,74.3 nM,3470 M⁻¹ s⁻¹,–,B1
–,–,–,–,141 nM,B2
–,–,–,–,140 nM,B3
